B1: Pistol ribozyme (parent)
chain: GGGUCGUUGUUCCAUAAUCGCGUGGAUAUGGCACGCAAGUUUCUACCGGGCACCGUAAAUGUCCGACUGGAGCCGUUCGGGCGGCUAUAAACAGACCUCAGGCCCGAAGCGUGGCGGCACCUGCCGCCGGUGGUAAAAAAGAUCGGAAGAGCACACGUCU

Variants of: B1
Test: aptazyme ON/OFF ratio, guanine; higher = stronger switching; co-transcriptional cleavage with and without guanine

Variant	aptazyme ON/OFF ratio
U7A U8A U10A C12A	1.33
U8G G9C U10A U11G C12U C13G	1.1
U7G U8G G9U U10G U11A C12G	1.16
U7C U8G G9A U11A C12G C13U	1.08
U7A U8C G9U U10A C12A C13A	1.12
U7C U8A G9C U10G U11C C12U	1.24
U7G U8A G9C U10A U11A C12G C13U	1.02
U7G U8A U10A U11A C12U C13U	1.31
U7C U10G U11A C12G	1.15
U7A U8C U10C U11G C13A	1.2
U8C G9U U11G C12G C13A	1.19
U8C G9A U10G U11C C12A	1.23
U8G G9U U10G C12A C13G	1.04
U7C U8A G9C U10A C13G	1.07
U7A U8G G9C U10G U11G C12G	1.19
U7A G9A U11A C12U C13A	1.24
U7G G9U U10C U11A C12U C13G	1.23
U8G G9A U10A U11C	1.06
U7G U8G G9U U11C C12A	1.8
U7C U8C G9A U10C U11A C12G C13G	1.19
U7G G9C U10G U11A C12G	1.28
U8G G9C U10A U11G C12U	1.2
U7A U8A G9C U10G C12A C13U	1.27
U7A U8A U10C U11G C13A	1.13

Variant	aptazyme ON/OFF ratio
U8C U10A U11G C13U	1.23
U7A U8A G9U U11G C12U C13A	1.28
U8A G9C U10C U11C C12U C13U	1.03
U7A U8C G9C U10G U11G	1.06
U7C G9U U10C U11A C12U C13A	1.13
U7G U8A G9U U10A U11A C12U	1.09
U8C U10C U11A C12A C13A	1.35
G9C U10A U11C C13A	1.09
U7A U8C G9C U10G U11A C12G C13A	1.02
U7C U8C U10G U11C C12G C13G	1.13
U7G U8A G9U U10A U11C C13A	1.04
U7A U8G U10C C12A	1.33
U7C U10A U11A C13A	1.28
U8G G9U U10C U11A C13G	1.04
U7G U8A G9A U10A U11C C12G C13U	1.1
U8G G9C U10C U11C	1.04
U7C G9U U10A U11A C12U C13U	1.25
U7C U8G G9C U10A U11C C12U C13G	1.12
U7G U8A U10C U11A C13A	1.39
U8G G9U U10C C12G	1.41
U7G G9A U10G C12U C13G	1.11
U7G U8G G9U U10G U11G C12G C13G	1.06
U7A U8C C12A C13U	1.24
U7A U8A G9A U10A U11C C12U C13G	1.08

Variant	aptazyme ON/OFF ratio
U7C U8C U10A U11A C12U C13U	1.16
U7C U8A G9C U10A U11C C12A	1.28
U7A U8C G9U U11G C12U	1.35
U7G U8A G9U U10C U11C C12G C13U	1.06
U7C G9A C12U C13A	1.22
U7G U8G G9A U10C U11G C13U	1.19
U7C U8G G9U U10G U11G C12U C13A	1.2
U7A G9U U10G U11G C12G C13U	1.45
U7G U8C G9U U10C U11G C13A	1.44
U7C U8G G9U U11A C12A	1.52
U8G G9A C13U	1.28
U7G U8G C12G C13G	1.36
U7C G9A U10G U11C C12U C13A	1.2
U7G U8G G9U U10A U11C C12A C13G	1.08
U7C U8C U11G C12A C13G	1.11
U8G C13U	1.27
U7G U8C G9A U10G U11G C12G C13U	1.14
U7G G9U U10G U11C C12A C13G	1.23
U7C U8G U11C C12U C13A	1.35
U8C G9U U10G U11C C12U	1.04
U7G U10C U11C C13U	1.05
U7C U8G U10A C13A	1.15
U7G U8C U10C C12G	1.37
U7A U8G G9A U10G C12G C13U	1.33

Variant	aptazyme ON/OFF ratio
U7C G9C U10G U11A C12A	1.25
U7C U8G G9C U10C U11C C12A C13G	1.04
U7A U8C G9C U10A U11A C13G	1.06
U7G U10G U11A C12A	1.14
U8C G9A U10A U11A C13A	1.17
U8A G9U U10A U11C C12U	1.11
U8A G9U U10C U11C C12A C13U	1.04
U7A U8C U10A U11A	1.18
U7C U8A G9C U10G U11G C12A C13G	1.12
U7C U8G G9U U10G U11A C12G C13A	1.15
U7C G9C C13A	1.03
U8A G9U U10C U11A C12U	1.18
U7A U8C G9U U10C U11G C13A	1.17
U8A G9A U10C U11G	1.33
G9A U10G C12A C13A	1.29
U7G U8G G9C U10G U11A C12A C13G	1.12
U7G U8G G9A U10C U11A C12G C13U	1.17
U7C U8G G9A U10A U11A C12A C13G	1.2
U8A G9U U10A C12U C13A	1.25
U7G U8C G9A U10G U11C C12A C13G	1.16
U7C U8G G9U U10G U11C C12U	1.09
U8A G9U U10A U11A C12A C13U	1.24
U7A U10A U11C C12A C13U	1.11
U10C U11G C12G C13U	1.11

Variant	aptazyme ON/OFF ratio
U8A G9A U10A U11A C13A	1.27
U7A G9U U10G U11A C12G	1.33
U7A G9C U10A U11G C12A C13A	1.11
U7G U8G U10C U11A C12U C13G	1.37
U7C U8A G9C U10A C12A C13G	1.14
U7G U8C U10G U11A	1.21
U8A G9C U10G U11C C12G C13A	1.27
U7G U10C U11C C13G	1.01
G9U U10G U11A C12U	1.3
U7A U8G G9C U11A C12A	1.73
U7A G9A U11C C12A	1.18
U7C U8C C12G C13U	1.15
U8C C13G	1.11
U7A U8C U11G C12U C13G	1.06
U7C U8C G9U U10C C12G C13A	1.11
U7C U8G U10C U11G C12A C13U	1.32
U8C G9C U10A U11A C13A	1.15
U8A U11C C12A C13A	1.24
U7G U8C G9U U11A C12A C13U	1.5
U8A U11C C12G C13A	1.31
G9A U10A U11G C12G	1.16
U7C U8G G9U U10C U11G	1.23
U7C G9C U10A U11A C12G C13G	1.12
U7A U8C G9A U11G C12U C13A	1.28

Variant	aptazyme ON/OFF ratio
U7A U8G U10G C12U	1.37
U7C U8C G9A U10A C12U C13U	1.13
U7C U8C G9U U10G U11G C13A	1.1
U7C U8A G9U U10C U11G C12G C13U	1.11
U7G U8C C12A C13A	1.13
U7C G9C U10A C12U C13A	1.08
U7C U8G G9U U11G C12U	1.27
U7G U8C U10C U11G C12G C13G	1.08
U7C U8G G9C U10G U11A C12A C13G	1.21
U7C G9A U10A U11G C13U	1.25
G9U	4.29
U7A U8G G9U U10C U11A C13G	1.33
U7C U8G U10G C13U	1.35
U7A U8G U11A C12A	1.43
G9U U10A U11A	2.34
U7G U8C G9C U10A U11A	3.4
U7A U8G G9U U10G C12G C13U	1.3
U7A U8G U10G C12U C13A	1.11
U7G U8G G9C U10A U11C C12A C13U	1.04
U7A U8G G9U U10A U11A C12A	1.2
U7G U8A G9U U10A C13G	1.03
U8C G9A C12G C13G	1.27
U7C U8G G9C U11A C12A	1.22
U8C G9A U10A U11G C12A C13G	1.17

Variant	aptazyme ON/OFF ratio
U7A G9U U10G U11A C12U C13G	1.16
U7A U10C U11C C12G	1.14
U8G G9C U10C C12G C13U	1.08
U7A G9C U11C C12A C13G	1.05
U7G U8C G9A U10C U11G C12G	1.12
U7C G9U U10C U11G C12G	1.1
U7A G9U U11G C12G C13A	1.26
U7G U8A G9U U10C C13A	1.11
U7C U8C U11A C12G C13G	1.12
U7G U8C U10C C13U	1.64
U7A U8C G9U U10A U11A C12A	1.28
U7C U8G G9U U10A U11G C12G	1.23
U7C G9A U11C C12A C13A	1.16
U7C U8G G9C U10G C12U	1.4
U7A U8C U11G C12G	1.09
U7A U8A G9C U10C U11C C13G	1.07
U7G U8A G9U U11G C12A C13U	1.09
U7C U8G G9A U10A U11C C12G C13G	1.34
U7C U8G G9U U10G U11C C13G	1.14
U7G G9A U10A	3.3
U7C U8A G9A U10G U11G C12U	1.39
U7C U8C G9A U10A U11A C12G	1.33
U7G U8C U11A C12U C13A	1.2
